Laboratory results reported in publication PMC3260337.

Columns and labels:
[1] = biological target: AS27[Y33R] monobody, displayed on yeast; test: flow cytometry on cells
[2] = biological target: AS15[H33R] monobody, displayed on yeast; test: flow cytometry on cells

fold reduction of affinity against AS27 [1]: 8 times
fold reduction of affinity against AS15 [2]: 4 times
Substance: Abl SH2 domain, biotinylated (for yeast display measurements) (from UniProt P00519 112-232) (domain or fragment)
